For one molecule, fold MurA copurified, against the prkA+ strain results are on record in article doi:10.1101/2024.04.02.587704.

The target in this assay is ReoM-His from the ΔprkA ΔmurZ strain LMPR29 (unphosphorylated at Thr-7) (L. monocytogenes) (UniProt B8DE07). The assay can be described thus: cross-linking + pull-down.
UniProt B8DE07, sequence (B8DE07 whole entry, stated change not applied): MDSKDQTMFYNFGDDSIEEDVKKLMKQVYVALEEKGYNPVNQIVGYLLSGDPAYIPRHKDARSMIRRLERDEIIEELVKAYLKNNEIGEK

B1: MurA (L. monocytogenes UDP-N-acetylglucosamine 1-carboxyvinyltransferase) (enzyme)
chain: MEKIIVRGGKQLNGSVKMEGAKNAVLPVIAATLLASKGTSVLKNVPNLSDVFTINEVLKYLNADVSFVNDEVTVDATGEITSDAPFEYVRKMRASIVVMGPLLARTGSARVALPGGCAIGSRPVDLHLKGFEAMGAVVKIENGYIEATAEKLVGAKVYLDFPSVGATQNIMMAATLAEGTTVIENVAREPEIVDLANFLNQMGARVIGAGTEVIRIEGVKELTATEHSIIPDRIEAGTFMIAAAITGGNVLIEDAVPEHISSLIAKLEEMGVQIIEEENGIRVIGPDKLKAVDVKTMPHPGFPTDMQSQMMVIQMLSEGTSIMTETVFENRFMHVEEMRRMNADMKIEGHSVIISGPAKLQGAEVAATDLRAAAALILAGLVADGYTQVTELKYLDRGYNNFHGKLQALGADVERVDDSKVDVTNLASLF
Take B1: the fold MurA copurified, against the prkA+ strain was determined as 3 fold.
